Reference: article PMC5437309

How the values were obtained:
[1] = molecular target: JNK (Homo sapiens) (UniProt P45983); settings: cited from earlier work
[2] = molecular target: GST-JNK1α1 (UniProt P45983); experiment: pull-down; GST-JNK isoform (2 μg) or unfused GST on glutathione beads, rotated 1 h at +4 °C with cleared 293T lysate holding the luciferase fusion (7,000 units), low-salt buffer with 0.5% Igepal, washed three times; luciferase on beads as per cent of input

JIP peptide (from UniProt Q9UQF2)
Kd [1]: 800 nM

luciferase-fused OptoJNKi.lsm (AsLOV2Jα I539E-JIP11) (from UniProt Q9UQF2 157-167) (designed binder)
ratio of pulldown, lit-state mutant against dark-state mutant [2]: 30 fold
